One molecule from paper PMC11374688, “Structural basis for transthiolation intermediates in the ubiquitin pathway” (Nature, 2024) can be followed below.

This test addresses T1, Schizosaccharomyces pombe Uba1 (lacking the first 12 amino acids) (S. pombe, UniProt O94609 13-1012, active site cysteine thiol linked to the dithioacetal carbon of the Ub(T) Gly76 surrogate).
T1 construct: Full-length Uba1 was used in the transthiolation assays; this molecule also stands for it in the functional rows; also called E1; source: E. coli BL21 (DE3) codon plus, purified (Ni-NTA, Ulp1, SEC, MonoQ)
T1 sequence (looked up): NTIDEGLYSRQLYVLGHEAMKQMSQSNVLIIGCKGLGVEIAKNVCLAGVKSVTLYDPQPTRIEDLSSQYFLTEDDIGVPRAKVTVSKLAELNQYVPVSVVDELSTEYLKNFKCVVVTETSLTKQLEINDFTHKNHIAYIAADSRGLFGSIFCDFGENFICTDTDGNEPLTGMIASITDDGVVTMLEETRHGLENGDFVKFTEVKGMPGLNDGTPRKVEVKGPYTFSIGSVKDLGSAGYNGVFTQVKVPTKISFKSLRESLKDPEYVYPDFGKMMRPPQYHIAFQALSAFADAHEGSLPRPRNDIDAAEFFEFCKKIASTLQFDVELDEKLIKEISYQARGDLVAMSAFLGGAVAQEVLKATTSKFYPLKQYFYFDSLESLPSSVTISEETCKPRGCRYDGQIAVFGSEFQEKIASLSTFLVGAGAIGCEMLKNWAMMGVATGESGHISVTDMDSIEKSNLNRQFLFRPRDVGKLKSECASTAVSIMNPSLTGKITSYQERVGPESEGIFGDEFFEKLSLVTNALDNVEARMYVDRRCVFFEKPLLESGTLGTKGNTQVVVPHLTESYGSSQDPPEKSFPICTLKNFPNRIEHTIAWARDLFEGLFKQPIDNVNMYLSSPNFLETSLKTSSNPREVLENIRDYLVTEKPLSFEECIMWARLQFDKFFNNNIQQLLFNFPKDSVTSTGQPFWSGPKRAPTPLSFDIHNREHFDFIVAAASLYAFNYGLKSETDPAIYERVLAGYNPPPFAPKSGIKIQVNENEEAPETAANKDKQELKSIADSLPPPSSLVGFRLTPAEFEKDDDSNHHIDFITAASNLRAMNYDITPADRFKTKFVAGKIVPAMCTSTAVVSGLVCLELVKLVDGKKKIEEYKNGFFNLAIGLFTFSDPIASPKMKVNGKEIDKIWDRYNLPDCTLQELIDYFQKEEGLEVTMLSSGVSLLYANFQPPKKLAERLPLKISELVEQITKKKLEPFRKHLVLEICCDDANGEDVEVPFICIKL
Description: cryo-EM structure; E1–Ub(T)–E2 (Ub(T) Gly76 surrogate covalently linked to the E1 and E2 active site cysteines) at 3 mg/ml in Tris-HCl pH 7.2, 100 mM NaCl, preincubated 30 min on ice with 5 mM MgCl2, 1 mM ATP and ~0.8 molar equivalents of Ub; 0.05% CHAPSO; doubly and singly loaded complexes resolved from the same sample. Particulars: both partners purified.

B1: S. pombe Ub without tags (natural protein)
chain: not shown
notes: In clusters 3 to 5 of the doubly loaded complex the C terminus of Ub(A) is adenylated (Ub(A)-AMP); also called Ub(A); native Ub; source: E. coli BL21 (DE3) codon plus, purified (as described previously, with additional SEC)
On to B1, for which the binding result is reported as “binds”.
